Where “and” joins values, the source holds several entries; their conditions need not be identical. Identical values can stand only once. Where only a bound is given, the exact number is not on record here.

We go through eleven molecules from patent JP2010189402A (dated 2010).

B1: 抗CD20キメラ抗体 1k0924 (antibody, V domains shown)
VH: QVQLQQPGAELVKPGASVKMSCKASGYTFTSYNIHWVKQTPGQGLEWIGAIYPGNGDTSYNQKFKGKATLTSDKSSSTAYMQLSSLTSEDSAVYYCARMSTMITGFDYWGQGTTLTVSS
VL: QIVLSQSPAILSASPGEKVTMTCRASSSVSYMHWYQQRPGSSPKPWIYATSNLASGVPARFSGSGSGTSYYFTISRVEAEDAATYYCQQWNSNPPTHGGGTKLEIK
B2: 抗CD20キメラ抗体 1k1736 (antibody, V domains shown)
VH: QVQLQQPGAELVKPGASVKMSCKASGYTFTTYNLHWVKQTPGQGLEWIGGIYPGNGDTSYNQKFKVKATLTADKSSNTAYMQLSSLTSEDSAVYYCARWIYYGNYEGTLDYWGQGTSVTVSS
VL: QIVLSQSPAILSSSPGEKVTMTCRASSSVSYMLWYQQKPGSSPEPWIYATSNLASGVPARFSGGGSGTSYSLTISRVEAEDAATYYCQQWTFNPPTFGGGTKLEIK
B3: 抗CD20キメラ抗体 1k1422 (antibody, V domains shown)
VH: QVQLQQPGAELVKPGASVKMSCRASGYTFTNYNMHWIKQTPGQGLEWIGAIYPGSGDTSYNRKFKGKATLTADTSSSTAYMQFSSLTSADSAVYYCARFTYYYGGTYGAMDYWGQGTSVTVSL
VL: QIVLTQSPPIMSASLGEEITLTCSASSRVSYMLWYQQKSGTSPKLLIYSTSNLASGVPSRFSGSGSGTFYSLTISSVEAEDAADYYCHQWTSNPCTFGGGTKLEIK
B4: ヒト化抗CD20モノクローナル抗体 hz1791-ss (antibody, V domains shown)
VH: QIQLVQSGSELKKPGASVKVSCKASGYTFTNFGVNWVRQAPGKGLKWMGWINTYTGEPSYAQGFTGRFAFSLDASVSTAYLQISSLKAEDTATYFCTRRTNYYGTSYYYAMDYWGQGTTVTVSS
VL: STVMTQSPDSLAVSLGERATINCKSSQSNSNDVAWYQQKPGQSPKVLIYFASNRYSGVPDRFSGSGYGTDFTLTISSLQAEDVAVYFCQQDYSSPLTFGAGTKLEIK
notes: also called ss; hz1791-ss32
B5: 抗ヒトCD20マウスモノクローナル抗体 1k1712 (antibody, V domains shown)
VH: QVQLQQPGAELVKPGASVKMSCKASGFTFTSYNLHWVKQTPGQGLEWIGAIYPGSGDTSYNQQFKGKATLTADKSSNTAYMQLNSLTSEDSAVYCCARSAMISTGNWYFDYWGQGTTLTVSS
VL: QIVLSQSPAILSASPGEKVTMTCRASSSVSYMDWYQQKPGSSPKPWIYATSNLASGVPARFSGSGSGTSYSLTISRVEAEDTATYYCQQWTFNPPTFGSGTKLEIK
notes: Mouse monoclonal antibody from hybridoma; also called m1712
B6: 抗ヒトCD20マウスモノクローナル抗体 1k1402 (antibody, V domains shown)
VH: QVQLQQPGAELVKPGASVKMSCKASGFTFTSYNMHWVKQTPGQGLEWIGGIYPGNGDTSYNQKFKGKATLTADKSSSTAYMQLSSLTSEDSAVYYCARFYYYGSMGAMDYWGQGTSVTVSS
VL: QIVLSQSPAILSASPGEKVTMTCRASSSVSYMHWYQQKPGSSPKPWIYATSNLASGVPARFSGSGSGTSYSLTITRVEAEDAATYYCQQWTFNPPTFGAGTKLELK
notes: Mouse monoclonal antibody from hybridoma; also called m1402
B7: 抗ヒトCD20マウスモノクローナル抗体 1K1228 (antibody, V domains shown)
VH: QVQLQQPGAELVKPGASVKVSCKASGFTFTSYNLHWVKQTPGQGLVWIGAIYPGNGDTSYNQKFRGKATLTADISSSTAYMQLSSLTSEDSAVYYCARYYYGYDAMDYWGQGTSVTVSS
VL: EIILTQSPTTMAASPGEKITITCSASSSISSYYLRWYQQKPGFSPKVLIYRTSNLASGVPARFSGSGSGTSYSLTIGTMEAEDVATYYCQQGNTVPLTFGSGTKLEIK
notes: Mouse monoclonal antibody from hybridoma; also called m1228
B8: 抗ヒトCD20マウスモノクローナル抗体 1k1782 (antibody, V domains shown)
VH: QVQLQQSGAELAKPGASVKMSCKASGYTFTSYWMHWVKQRPGQGLEWIGYITPSTGYTDYNKKFKDKATLTADRSSSTAYMHLSSLTSEDSAVYYCARSGPYFDVWGAGTTVTVSS
VL: DILLTQSPAILFVSPGERVSLSCRASQNIGTSIHWYQQRTNGSPRLLIKYASESFSGIPSRFSGSGSGTDFTLSINSVESEDIADYYCQQSNSWPFTFGSGTKLEIK
notes: Mouse monoclonal antibody from hybridoma; also called m1782
B9: ヒト化抗CD20モノクローナル抗体 hz1791-ff (antibody, V domains shown)
VH: QIQLVQSGSELKKPGASVKVSCKASGYTFTNFGVNWVKQAPGKGLKWMGWINTYTGEPSYADDFKGRFAFSLDASASTAYLQISSLKAEDMATYFCTRRTNYYGTSYYYAMDYWGQGTTVTVSS
VL: STVMTQSPSFLSASVGDRVTITCKASQSVSNDVAWYQQKPGQSPKVLIYFASNRYTGVPDRFSGSGYGTDFTLTISSLQAEDVAVYFCQQDYSSPLTFGAGTKLEIK
notes: also called ff; hz1791-ff34
B10: ヒト化抗CD20モノクローナル抗体 hz1791-sf (antibody, V domains shown)
VH: QIQLVQSGSELKKPGASVKVSCKASGYTFTNFGVNWVKQAPGKGLKWMGWINTYTGEPSYADDFKGRFAFSLDASASTAYLQISSLKAEDMATYFCTRRTNYYGTSYYYAMDYWGQGTTVTVSS
VL: STVMTQSPDSLAVSLGERATINCKSSQSNSNDVAWYQQKPGQSPKVLIYFASNRYSGVPDRFSGSGYGTDFTLTISSLQAEDVAVYFCQQDYSSPLTFGAGTKLEIK
notes: also called sf; hz1791-sf43
B11: ヒト化抗CD20モノクローナル抗体 hz1791-fv (antibody, V domains shown)
VH: QIQLVQSGPELKKPGASVKISCKASGYTFTNFGVNWVKQAPGKGLKWMGWINTYTGEPSYADDFKGRFAFSLDASVSTAYLQISSLKAEDTSTYFCTRRTNYYGTSYYYAMDYWGQGTTVTVSS
VL: STVMTQSPSFLSASVGDRVTITCKASQSVSNDVAWYQQKPGQSPKVLIYFASNRYTGVPDRFSGSGYGTDFTLTISSLQAEDVAVYFCQQDYSSPLTFGAGTKLEIK
notes: also called fv; hz1791-fv10

One assay deals with T1, ヒトCD20抗原 (human, UniProt P11836 1-297).
T1 sequence (looked up): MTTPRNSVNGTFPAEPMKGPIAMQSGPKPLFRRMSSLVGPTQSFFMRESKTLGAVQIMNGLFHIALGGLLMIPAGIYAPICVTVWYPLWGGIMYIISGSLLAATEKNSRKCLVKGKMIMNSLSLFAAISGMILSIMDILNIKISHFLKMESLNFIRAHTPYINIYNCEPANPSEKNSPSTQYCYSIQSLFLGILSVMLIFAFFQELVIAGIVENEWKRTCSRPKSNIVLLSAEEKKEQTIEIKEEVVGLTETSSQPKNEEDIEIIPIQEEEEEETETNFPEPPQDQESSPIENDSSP
Kind of assay: cell-based or functional assay.
Turning to B1, the “CDC 傷害活性 (RC−K8細胞)” value is ~25 %.

Consider B2, for which the “CDC 傷害活性 (RC−K8細胞)” value was ~10 %.

Regarding B3, the “CDC 傷害活性 (RC−K8細胞)” value is ~10 %.

A further assay concerns the target T1, ヒトCD20抗原. Kind of assay: Scatchard analysis, Raji cells.
Turning to B4, the binding result is on record as “binds”.

For the molecule B5, the binding result is given as “binds”.

For the molecule B6, the binding result is “binds”.

Take B7: the binding result was “binds”.

In the case of B8, the binding result is reported as “binds”.

A further assay has as its target T1, ヒトCD20抗原. Kind of assay: Scatchard analysis, Raji cells, FITC-labelled secondary antibody fluorescence.
B9: the Kd (as a rule, the equilibrium constant for the complex coming apart) was under 9.5 nM.

Consider B10, for which the Kd is 13 nM and 9.5 nM.

Consider B11, for which the Kd is under 9.5 nM.
